Substrate in the series: O=c1oc2c(O)c(O)ccc2cc1-c1nc2ccccc2s1
The series can be described thus: Inhibition kinetics of human S-COMT catalysed O-methylation of 3-BTD. The series is classed as biochemical. To be noted: other: 3-BTD as substrate, no inhibitor; pH 7.4; 37.0 °C.

B1: recombinant human S-COMT (Homo sapiens) (protein)
chain: MGDTKEQRILNHVLQHAEPGNAQSVLEAIDTYCEQKEWAMNVGDKKGKIVDAVIQEHQPSVLLELGAYCGYSAVRMARLLSPGARLITIEINPDCAAITQRMVDFAGVKDKVTLVVGASQDIIPQLKKKYDVDTLDMVFLDHWKDRYLPDTLLLEECGLLRKGTVLLADNVICPGAPDFLAHVRGSSCFECTHYQSFLEYREVVDGLEKAIYKGPGSEAGP
notes: made in house
As a reminder, the Km is the substrate concentration at which the rate is half of its maximum. As to B1, the Km came to 0.38 ± 0.029 µM and the Vmax was found to be 13.8 ± 0.30 nmol/min/mg protein.

(Values after article PMC8158265, “Inhibition of catechol-O-methyltransferase by natural pentacyclic triterpenes: structure–activity relationships and kinetic mechanism” (Journal of Enzyme Inhibition and Medicinal Chemistry, 2021).)
